Source: patent US20240132577A1 (US Dept. of Health and Human Services, published 2024)
“And” between values parts separate entries of the source, which are not always exact repeats. Identical values can stand only once.

Biological target: SARS-CoV-2 S protein (C-terminally truncated, on pseudotyped virus) (SARS-CoV-2 (Wuhan-Hu-1), UniProt P0DTC2 14-1254)
Test: cell-based or functional assay

Row | Binder | IC50 (pseudovirus neutralization) | IC90 (pseudovirus neutralization)
1 | Nb47 (VHH) VHH: QVQLQESGGGLVQAGGSLRLSCAASGRTLSRYSMSWFRQAPGKEREFVAGIRWSGSNTYYADSMKQRFTISQDNVKNTVHLQMNSLKPEDTAVYYCAATSRSDHYLNAVAWTLPNEYDYWGQGTQVTVSS | 731 ng/ml and 54.2 nM | > 10000 ng/ml and > 500 nM
2 | Nb7 (VHH) VHH: QVQLQESGGGLVQAGDSLRLSCLSSERTFRRYGIAWFRQAPGKEREFVAAVDRSHSQTNYADFVQGRFTISTVYAKNMVYLQMNSLKPEDTAVYYCAAASYEKGSDYTSWNTDRGYDYWGQGTQVTVSS | 43 ng/ml and 3.2 nM | 451 ng/ml and 33.4 nM
3 | Nb43 (VHH) VHH: QVQLQESGGGLVQAGDSLKLSCAASGRTFSDSAMGWFRQAPGEEREFVAVITWNGGTTYYADSVKGRFTISRDDAKNTVYLQMNSLKPEDTAVYYCAADTSRWDYSLTYHYTREYNYWGQGTQVTVSS | 281 ng/ml and 20.9 nM | 5330 ng/ml and 395 nM
4 | Nb6 (VHH) VHH: QVQLQESGGGLVQAGGSLRLSCAASGNIANSNSMAWWRQTPGNQHERVAIISHGVTNYADSVKGRFTVSRDNAKNTLYLQMNNLKPEDTAAYYCYADLFGNTYWGQGTQVTVSS | 141 ng/ml and 10.5 nM | 354 ng/ml and 26.3 nM
5 | mNb35 (VHH) VHH: QVQLVESGGGLVQAGGSLRLSCAASGRTFSKYAMGWFRQAPGKERKFVATISWSGDSAFYADSVKGRFTISRDNARNTVYLQMNSLKPEDTAVYYCTADRGMGYGDFMDYWGQGTSVTVSS | 209 ng/ml and 15.5 nM | 692 ng/ml and 51.3 nM
